Assay [1] has as its target T1, Prefoldin from Pyrococcus horikoshii (PhPFD-α2β4 heterohexamer, 86.4 kDa) (Pyrococcus horikoshii, UniProt O58263 1-148; O58268 1-117, S98G).
T1 sequence 1: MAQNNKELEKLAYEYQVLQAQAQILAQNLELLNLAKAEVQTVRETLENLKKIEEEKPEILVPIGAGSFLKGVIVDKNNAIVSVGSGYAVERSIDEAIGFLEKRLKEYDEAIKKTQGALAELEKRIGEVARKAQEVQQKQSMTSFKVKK
T1 sequence 2: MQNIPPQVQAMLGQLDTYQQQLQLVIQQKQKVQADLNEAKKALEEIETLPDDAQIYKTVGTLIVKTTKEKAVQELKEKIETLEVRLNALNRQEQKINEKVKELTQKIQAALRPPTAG
Briefly: NMR titration.

Assay [2] has as its target T1, Prefoldin from Pyrococcus horikoshii …. Put plainly: BLI. For orientation: Biolayer interferometry detects binding as a change in optical thickness at a sensor tip.

Positions of bridges follow the written chain, without caps; N, C: chain ends. No end group written: not given here. *: point of attachment. Biotin = O=C1N[C@H]2[C@H](CS[C@H]2CCCCC(=O)*)N1; βAla = NCCC(=O)O

By Kd is commonly meant the equilibrium constant for the complex coming apart. Lower therefore signals tighter binding. One may read the koff as the first-order rate constant of dissociation. Low values mean slow dissociation, high ones fast dissociation. In assay [1], KCNTATCATQRLANFLVHSSNNFGAILSSTNVGSNTY (ends and bridges not checked; also: uniformly [15N]-labelled) [U-[15N]-labelled human islet amyloid polypeptide (IAPP), recombinant, monomeric] showed a Kd of 61 µM and a koff of roughly 6000 s⁻¹.

B1: biotinylated IAPP (biotinyl-[β-Ala]-[β-Ala]-IAPP-NH2) (peptide)
peptide: {Biotin-βAla-βAla}-KCNTATCATQRLANFLVHSSNNFGAILSSTNVGSNTY-NH2
modifications: disulfide 2-7
SMILES: CC[C@H](C)[C@H](NC(=O)[C@H](C)NC(=O)CNC(=O)[C@H](Cc1ccccc1)NC(=O)[C@H](CC(N)=O)NC(=O)[C@H](CC(N)=O)NC(=O)[C@H](CO)NC(=O)[C@H](CO)NC(=O)[C@H](Cc1c[nH]cn1)NC(=O)[C@@H](NC(=O)[C@H](CC(C)C)NC(=O)[C@H](Cc1ccccc1)NC(=O)[C@H](CC(N)=O)NC(=O)[C@H](C)NC(=O)[C@H](CC(C)C)NC(=O)[C@H](CCCNC(=N)N)NC(=O)[C@H](CCC(N)=O)NC(=O)[C@@H](NC(=O)[C@H](C)NC(=O)[C@@H]1CSSC[C@H](NC(=O)[C@H](CCCCN)NC(=O)CCNC(=O)CCNC(=O)CCCC[C@@H]2SC[C@@H]3NC(=O)N[C@@H]32)C(=O)N[C@@H](CC(N)=O)C(=O)N[C@@H]([C@@H](C)O)C(=O)N[C@@H](C)C(=O)N[C@@H]([C@@H](C)O)C(=O)N1)[C@@H](C)O)C(C)C)C(=O)N[C@@H](CC(C)C)C(=O)N[C@@H](CO)C(=O)N[C@@H](CO)C(=O)N[C@H](C(=O)N[C@@H](CC(N)=O)C(=O)N[C@H](C(=O)NCC(=O)N[C@@H](CO)C(=O)N[C@@H](CC(N)=O)C(=O)N[C@H](C(=O)N[C@@H](Cc1ccc(O)cc1)C(N)=O)[C@@H](C)O)C(C)C)[C@@H](C)O
In the case of B1, the Kd in assay [2] was 16 ± 2.4 µM.

For the origin of these results see doi:10.1101/2021.10.20.465084 (bioRxiv, 2021).
